Experimental findings from patent US20100203559A1 (published 2010) are described below.

Positions count from the first letter of the chain named.

B1: α-SNAP-25 monoclonal antibody 2E2A6 (antibody, V domains shown)
VH: QVQLQQSDAELVKPGASVKISCRASGYTFTDHSIHWVKQQPGQGLEWIGYIFPGNGNIEYNDKFKGKATLTADKSSGTAYMQLNSLTSEDSAVYFCKRMGYWGQGTSVTVSS
VL: DVLMTQTPLTLSVTIGQPASISCKSSQSLLYTNGKTYLTWLFQRPGQSPKRLIYLVSELDSGVPDRFSGSGSGTDFTLEITRVEAEDLGVYYCLQSAHFPFTFGSGTKLEIKR
B2: α-SNAP-25 monoclonal antibody 3C1A5 (antibody, V domains shown)
VH: QVKLQESGAELVKPGASVKISCKASGYTFTDHSIHWVKQKPGQGLEWIGYLFPGNGNFEYNEKFKGKATLTADKSSSTVYMYLNSLTSEDSAVYFCKRMGYWGQGTTVTVSS
VL: B1 VL with L3V, Y31N, F42I, K50Q, E58K, E79K, T81S, A97S
B3: α-SNAP-25 monoclonal antibody 1D3B8 (antibody, V domains shown)
VH: QVKLQESGAELVKPGASVKISCKASGYIFTDHALHWVRQKPEQGLEWIGYIFPGNGNIEYNEKFKGKATLTADKSSSTAYMQLNSLTSGDSAMYFCKKMDYWGQGTTVTVSS
VL: DVLMTQTPLSLPVSLGDQASISCRSSQSIVHSNGNTYLEWYLQKPGQSPKLLIYKVSNRFSGVPDRFSGSGSGTDFTLKISRVEAEDLGVYYCFQGSHVPPTFGAGTKLELKR

In the assay the target is T1, SNAP-25206 uncleaved substrate (PC12 cells) (rat (PC12 cells), UniProt P60881 1-206).
T1 construct: also called uncleaved SNAP-25206 substrate; uncleaved SNAP-25
T1 sequence (P60881 whole entry): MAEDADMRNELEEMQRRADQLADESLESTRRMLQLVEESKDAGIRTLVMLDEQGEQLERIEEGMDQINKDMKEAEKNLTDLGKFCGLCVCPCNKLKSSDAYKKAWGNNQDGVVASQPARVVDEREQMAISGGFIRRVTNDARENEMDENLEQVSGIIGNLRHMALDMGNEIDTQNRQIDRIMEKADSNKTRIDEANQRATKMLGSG
Briefly: cell-based activity assay (Western blot, PC12 cells), ascites 1:100. In general terms: In western blotting, separated proteins are transferred to a membrane and probed.
With B1, the binding result was “no binding”.
With B2, the binding result is given as “no binding”.
With B3, the binding result is listed as “no binding”.
